Test results from article PMC7026663 (Nucleic Acids Research, 2019).

Columns and labels:
H2A/H2B dimer = H2A/H2B dimer (UniProt P06897;P02281); test: ITC
H3/H4 tetramer = H3/H4 tetramer (UniProt P84233;P62799); test: ITC

stoichiometry N (H2A/H2B dimer): 1
stoichiometry N (H3/H4 tetramer): 1
B1: AtFKBP53 NTD (residues 1–112) (domain or fragment)
chain: MGFWGLEVKPGKPQAYNPKNEQGKIHVTQATLGTGLSKEKSVIQCSIGDKAPIALCSLLPNKIECCPLNLEFDDDDEPVEFTVTGDRSIHLSGFLEYYQDDEDDYEHDEDDS
